These results are taken from PMC3617561 (Biochemistry, 2012).

One test concerns the target T1, USP1(S313A) (human, UniProt O94782 1-785, G670A | G671A | S313A).
T1 sequence (looked up): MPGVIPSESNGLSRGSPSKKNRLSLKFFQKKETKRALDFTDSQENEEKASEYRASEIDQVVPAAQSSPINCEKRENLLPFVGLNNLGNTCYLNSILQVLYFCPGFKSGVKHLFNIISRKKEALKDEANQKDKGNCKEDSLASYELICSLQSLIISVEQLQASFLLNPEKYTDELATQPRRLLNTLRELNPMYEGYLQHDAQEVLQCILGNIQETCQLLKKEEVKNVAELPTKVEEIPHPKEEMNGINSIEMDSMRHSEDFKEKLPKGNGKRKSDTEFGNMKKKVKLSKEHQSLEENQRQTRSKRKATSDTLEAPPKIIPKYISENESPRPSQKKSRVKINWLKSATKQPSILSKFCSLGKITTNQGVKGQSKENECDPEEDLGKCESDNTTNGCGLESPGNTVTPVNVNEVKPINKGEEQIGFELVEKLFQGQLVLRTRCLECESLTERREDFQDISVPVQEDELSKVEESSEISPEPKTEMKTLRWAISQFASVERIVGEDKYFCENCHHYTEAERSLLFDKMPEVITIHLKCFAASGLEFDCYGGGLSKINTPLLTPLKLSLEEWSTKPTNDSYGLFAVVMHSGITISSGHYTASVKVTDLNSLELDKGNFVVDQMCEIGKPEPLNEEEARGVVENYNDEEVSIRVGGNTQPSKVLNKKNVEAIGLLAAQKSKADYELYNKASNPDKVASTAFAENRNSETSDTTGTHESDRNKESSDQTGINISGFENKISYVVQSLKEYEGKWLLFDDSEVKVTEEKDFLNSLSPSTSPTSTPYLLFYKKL
The test can be described thus: cell-based or functional assay.

The target of another test is T2, USP1(S313D) (human, UniProt O94782 1-785, G670A | G671A | S313D).
T2 sequence (looked up): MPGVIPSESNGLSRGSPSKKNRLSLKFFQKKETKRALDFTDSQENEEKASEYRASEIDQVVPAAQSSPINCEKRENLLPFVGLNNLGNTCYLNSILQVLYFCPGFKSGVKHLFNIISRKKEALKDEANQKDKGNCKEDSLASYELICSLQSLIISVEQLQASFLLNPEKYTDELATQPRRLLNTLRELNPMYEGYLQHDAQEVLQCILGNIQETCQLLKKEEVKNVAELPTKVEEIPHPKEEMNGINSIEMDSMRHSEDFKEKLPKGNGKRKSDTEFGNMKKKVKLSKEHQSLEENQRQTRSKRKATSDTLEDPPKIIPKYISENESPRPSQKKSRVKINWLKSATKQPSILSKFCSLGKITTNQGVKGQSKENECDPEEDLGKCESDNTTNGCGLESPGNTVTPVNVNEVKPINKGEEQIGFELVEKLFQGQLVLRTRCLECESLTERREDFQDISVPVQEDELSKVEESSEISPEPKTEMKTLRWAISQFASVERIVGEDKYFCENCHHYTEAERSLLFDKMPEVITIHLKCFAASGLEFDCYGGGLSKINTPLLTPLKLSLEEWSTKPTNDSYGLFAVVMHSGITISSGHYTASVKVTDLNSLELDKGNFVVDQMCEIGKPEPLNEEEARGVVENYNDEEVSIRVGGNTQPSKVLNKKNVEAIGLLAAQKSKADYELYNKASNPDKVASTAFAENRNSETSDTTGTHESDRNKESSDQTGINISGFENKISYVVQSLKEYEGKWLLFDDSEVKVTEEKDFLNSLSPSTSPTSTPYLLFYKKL
The test can be described thus: cell-based or functional assay.

B1: UAF1 (USP1-associated factor 1), six-His-tagged, N-terminally HA-tagged (natural protein)
chain: not shown
Turning to B1, in the test with USP1(S313A), the “kcat/Km of USP1(S313A) purified together with His-tagged UAF1, on Ub-AMC” value turned out to be 1100 M⁻¹ s⁻¹. Besides, in the test with USP1(S313D), the “kcat/Km of the copurified USP1(S313D)/UAF1 complex on Ub-AMC” value was determined as 250000 M⁻¹ s⁻¹.
